The text below walks through data of patent US10064928B2, “Peptides and combination of peptides for use in immunotherapy against CLL and other cancers” (IMMATICS BIOTECHNOLOGIES GMBH, priority 2015, dated 2018).

The subject of one assay is CD8+ T cells. The assay is described as follows: In vitro T-cell priming assay with aAPCs loaded with peptide/MHC and anti-CD28, multimer readout. It counts as cell-based, human. The settings on record: in vitro immunogenicity, percentage of positive wells; for Wells positive [%]: HLA-A*02 restricted peptides; for wells: healthy HLA-A*02 donors. An excerpt: In order to obtain information regarding the immunogenicity of the TUMAPs of the present invention, the inventors performed investigations using an in vitro T-cell priming assay based on repeated stimulations of CD8+ T cells with artificial antigen presenting cells (aAPCs) loaded with peptide/MHC complexes and anti-CD28 antibody.
In order to perform in vitro stimulations by artificial antigen presenting cells loaded with peptide-MHC complex (pMHC) and anti-CD28 antibody, the inventors first isolated CD8+ T cells from fresh HLA-A*02 leukapheresis products via positive selection using CD8 microbeads (Miltenyi Biotec, Bergisch-Gladbach, Germany) of healthy donors obtained from the University clinics Mannheim, Germany, after informed consent.
PBMCs and isolated CD8+ lymphocytes were incubated in T-cell medium (TCM) until use consisting of RPMI-Glutamax (Invitrogen, Karlsruhe, Germany) supplemented with 10% heat inactivated human AB serum (PAN-Biotech, Aidenbach, Germany), 100 U/ml Penicillin/100 μg/ml Streptomycin (Cambrex, Cologne, Germany), 1 mM sodium pyruvate (CC Pro, Oberdorla, Germany), 20 μg/ml Gentamycin (Cambrex). 2.5 ng/ml IL-7 (PromoCell, Heidelberg, Germany) and 10 U/ml IL-2 (Novartis Pharma, Nürnberg, Germany) were also added to the TCM at this step.
Generation of pMHC/anti-CD28 coated beads, T-cell stimulations and readout was performed in a highly defined in vitro system using four different pMHC molecules per stimulation condition and 8 different pMHC molecules per readout condition.
The purified co-stimulatory mouse IgG2a anti human CD28 Ab 9.3 (Jung et al., 1987) was chemically biotinylated using Sulfo-N-hydroxysuccinimidobiotin as recommended by the manufacturer (Perbio, Bonn, Germany). Beads used were 5.6 μm diameter streptavidin coated polystyrene particles (Bangs Laboratories, Illinois, USA).
800.000 beads/200 μl were coated in 96-well plates in the presence of 4×12.5 ng different biotin-pMHC, washed and 600 ng biotin anti-CD28 were added subsequently in a volume of 200 μl. Stimulations were initiated in 96-well plates by co-incubating […] CD8+ T cells with 2×10^5 washed coated beads in 200 μl TCM supplemented with 5 ng/ml IL-12 (PromoCell) for 3 days at 37° C. Half of the medium was then exchanged by fresh TCM supplemented with 80 U/ml IL-2 and incubating was continued for 4 days at 37° C. This stimulation cycle was performed for a total of three times. For the pMHC multimer readout using 8 different pMHC molecules per condition, a two-dimensional combinatorial coding approach was used as previously described (Andersen et al., 2012) with minor modifications encompassing coupling to 5 different fluorochromes. Finally, multimeric analyses were performed by staining the cells with Live/dead near IR dye (Invitrogen, Karlsruhe, Germany), CD8-FITC antibody clone SK1 (BD, Heidelberg, Germany) and fluorescent pMHC multimers. For analysis, a BD LSRII SORP cytometer equipped with appropriate lasers and filters was used. Peptide specific cells were calculated as percentage of total CD8+ cells. Evaluation of multimeric analysis was done using the FlowJo software (Tree Star, Oreg., USA). In vitro priming of specific multimer+CD8+ lymphocytes was detected by comparing to negative control stimulations.

The next assay concerns the target HLA-A*02:01 (Homo sapiens, UniProt P04439, D140Y/D185E/D98H/E176V/E277Q/G131W/G231S/I119V/I121R/I166T/I218V/L300P/L318F/N151K/N90K/P208A/P217A/Q86G/Q94H/R138H/R169H/T345S). Kind of assay: MHC binding assay (UV-ligand exchange, beta2m ELISA). As to conditions: binding of HLA-class I restricted peptides to HLA-A*02:01, β2m ELISA. The method, boiled down:
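Exchange yield, UV-ligand exchange: 100-fold diluted samples on streptavidin plates, 1 h at 37 °C; HRP anti-β2m 1 h at 37 °C; TMB read at 450 nm.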
For orientation: An ELISA detects its analyte on a solid surface through an enzyme-linked reagent.

Consider “102 (IQDRAVPSL; listed as Homo sapiens) [compound 102]”, for which, in the assay with CD8+ T cells, the “Wells positive [%]” value is recorded as ““+” (<20% = +)”. The “Peptide Exchange (MHC class I binding score, peptide exchange yield)” value (“Peptide Exchange” for short) with HLA-A*02:01 is ““++” (≥20% = ++)”. For “192 (YIQEYLTLL; listed as Homo sapiens) [compound 192]”, in that order: ““+” (<20% = +)” and ““+++” (≥50 = +++)”.

Consider “521 (YLYGQTTTYL; listed as Homo sapiens) [compound 521]”, for which the wells result in the assay on CD8+ T cells is given as “++ (20%-49% = ++)”. For the substance “2 (ALHRPDVYL; listed as Homo sapiens) [compound 2]”, in the assay on CD8+ T cells, the “Wells positive [%]” value is ““+” (<20% = +)”. The “Peptide Exchange” value in the assay with HLA-A*02:01 is on record as ““+++” (≥50 = +++)”. The like results for “322 (SLASIHVPL; listed as Homo sapiens) [compound 322]” were, in that order, ““+” (<20% = +)” and ““+++” (≥50 = +++)”. As to “26 (AVLLVLPLV; listed as Homo sapiens) [compound 26]”, the “Wells positive [%]” value with CD8+ T cells is given as ““+” (<20% = +)”. In the assay with HLA-A*02:01, the “Peptide Exchange” value is recorded as ““+++” (≥50 = +++)”. For “101 (ILVVIEPLL; listed as Homo sapiens) [compound 101]”, in that order: ““+” (<20% = +)” and ““++++” (≥75% = ++++)”. For “240 (ILARDILEI; listed as Homo sapiens) [compound 240]”, in that order: ““+” (<20% = +)” and ““+++” (≥50 = +++)”. In the case of “202 (YVDDVFLRV; listed as Homo sapiens) [compound 202]”, the “Wells positive [%]” value in the assay with CD8+ T cells is ““++” (20%-49% = ++)”. For the same substance, the “Peptide Exchange” value with HLA-A*02:01 is recorded as ““++++” (≥75% = ++++)”. The like results for “329 (VLMDGSVKL; listed as Homo sapiens) [compound 329]” were, in that order, ““+++” (50%-69% = +++)” and ““++++” (≥75% = ++++)”.

Turning to “281 (NLLDDRGMTAL; listed as Homo sapiens) [compound 281]”, in the assay on CD8+ T cells, the “Wells positive [%]” value is on record as ““+” (<20% = +)”. Moreover, the “Peptide Exchange” value with HLA-A*02:01 is ““+++” (≥50 = +++)”. The like results for “154 (SLLAELHVLTV; listed as Homo sapiens) [compound 154]” were, in that order, ““+” (<20% = +)” and ““++++” (≥75% = ++++)”. For “5 (ALIFKIASA; listed as Homo sapiens) [compound 5]”, in that order: ““+++” (50%-69% = +++)” and ““+++” (≥50 = +++)”.

Turning to “200 (YMFEEVPIVI; listed as Homo sapiens) [compound 200]”, in the assay on CD8+ T cells, the “Wells positive [%]” value was ““+” (<20% = +)”. For the same substance, the “Peptide Exchange” value with HLA-A*02:01 is reported as ““++++” (≥75% = ++++)”.

Take “1 (AIPPSFASIFL; listed as Homo sapiens) [compound 1]”: in the assay on CD8+ T cells, the “Wells positive [%]” value is ““+++” (50%-69% = +++)”. Also, the “Peptide Exchange” value with HLA-A*02:01 is given as ““+++” (≥50 = +++)”. The like results for “220 (ALPEILFAKV; listed as Homo sapiens) [compound 220]” were, in that order, ““++” (20%-49% = ++)” and ““+++” (≥50 = +++)”. The like results for “112 (KTLDVDATYEI; listed as Homo sapiens) [compound 112]” were, in that order, ““+” (<20% = +)” and ““+++” (≥50 = +++)”. Regarding “96 (ILIDKTSFV; listed as Homo sapiens) [compound 96]”, the “Wells positive [%]” value in the assay on CD8+ T cells was ““+” (<20% = +)”. For the same substance, the “Peptide Exchange” value with HLA-A*02:01 is given as ““+++” (≥50 = +++)”. For “54 (FLYPFPLALF; listed as Homo sapiens) [compound 54]”, in that order: ““+” (<20% = +)” and ““+++” (≥50 = +++)”. For “323 (SLDLFNCEV; listed as Homo sapiens) [compound 323]”, in that order: ““+” (<20% = +)” and ““++++” (≥75% = ++++)”. As to “81 (WLVGQEFEL; listed as Homo sapiens) [compound 81]”, the “Wells positive [%]” value with CD8+ T cells is recorded as ““+” (<20% = +)”. For the same substance, in the assay with HLA-A*02:01, the “Peptide Exchange” value is ““+++” (≥50 = +++)”. For “380 (YLDRKLLTL; listed as Homo sapiens) [compound 380]”, in that order: ““++++” (>=70% = ++++)” and ““+++” (≥50 = +++)”. “201 (YQLELHGIEL; listed as Homo sapiens) [compound 201]”: in the assay on CD8+ T cells, the “Wells positive [%]” value is ““+” (<20% = +)”. The “Peptide Exchange” value with HLA-A*02:01 is recorded as ““++++” (≥75% = ++++)”. The like results for “17 (ALTKTNLQL; listed as Homo sapiens) [compound 17]” were, in that order, ““+” (<20% = +)” and ““+++” (≥50 = +++)”. As for “282 (LLRDGIELV; listed as Homo sapiens) [compound 282]”, the “Wells positive [%]” value in the assay with CD8+ T cells is listed as ““++” (20%-49% = ++)”. Also, in the assay with HLA-A*02:01, the “Peptide Exchange” value is ““+++” (≥50 = +++)”. The like results for “332 (VMIQHVENL; listed as Homo sapiens) [compound 332]” were, in that order, ““+” (<20% = +)” and ““+++” (≥50 = +++)”. For “69 (GLHQREIFL; listed as Homo sapiens) [compound 69]”, in that order: ““+” (<20% = +)” and ““+++” (≥50 = +++)”. The like results for “197 (YLQEVPILTL; listed as Homo sapiens) [compound 197]” were, in that order, ““+” (<20% = +)” and ““++++” (≥75% = ++++)”. With “114 (LIPEGPPQV; listed as Homo sapiens) [compound 114]”, in the assay on CD8+ T cells, the “Wells positive [%]” value is reported as ““+” (<20% = +)”. For the same substance, the “Peptide Exchange” value with HLA-A*02:01 is recorded as ““+++” (≥50 = +++)”.

As to “427 (LLYDAVHIV; listed as Homo sapiens) [compound 427]”, the wells result in the assay on CD8+ T cells is “++ (20%-49% = ++)”. For “228 (FLGGLSPGV; listed as Homo sapiens) [compound 228]”, the “Peptide Exchange” value with HLA-A*02:01 was ““+++” (≥50 = +++)”. Still for that read-out and setting: under “376 (VLYNQRVEEI; listed as Homo sapiens) [compound 376]” stands ““+++” (≥50 = +++)”; under “167 (TLDTSKLYV; listed as Homo sapiens) [compound 167]”, ““+++” (≥50 = +++)”; under “66 (SLAGGLDDMKA; listed as Homo sapiens) [compound 66]”, ““+++” (≥50 = +++)”. On the same count and under the same terms, under “248 (KTVEPPISQV; listed as Homo sapiens) [compound 248]” stands ““++” (≥20% = ++)”; under “204 (GLLQINDKIAL; listed as Homo sapiens) [compound 204]”, ““+++” (≥50 = +++)”. The same measure, in the same setting: under “273 (VLGEYSYLL; listed as Homo sapiens) [compound 273]” stands ““+++” (≥50 = +++)”.
